Here are results for 13 molecules from patent US20150147318A1 (ZOETIS SERVICES, published 2015).

Experiment [1] addresses T1, recombinant canine Nerve Growth Factor (Canis lupus familiaris NGF) (canine (Canis lupus familiaris), UniProt Q29074 110-229 (pig entry), limits assumed).
T1 chain: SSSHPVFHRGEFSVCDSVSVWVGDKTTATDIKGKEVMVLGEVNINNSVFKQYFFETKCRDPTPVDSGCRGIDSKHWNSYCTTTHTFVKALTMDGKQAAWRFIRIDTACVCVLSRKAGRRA
The experiment is described as follows: cell-based or functional assay.

Experiment [2] addresses T1, recombinant canine Nerve Growth Factor …. The experiment in a line: method not stated; recombinant canine NGF.
Experiment [3] shares this target. The experiment is described as follows: SPR trkA inhibition: mAb pre-incubated with NGF, binding of NGF to trkA measured in RU.
For experiment [4] the target is unchanged. The experiment in a line: SPR, Biacore T100, dog NGF; run 11/29. (Surface plasmon resonance follows binding to a sensor surface in real time, without labels.)
The target is the same in experiment [5]. The experiment in a line: SPR, Biacore T100, dog NGF; run 11/24.
The target is the same in experiment [6]. The experiment is described as follows: SPR, Biacore T100, dog NGF; run 11/24; comment 'Agg?'.
Experiment [7] has the same target. The experiment in a line: SPR, Biacore T100, dog NGF; run 11/29; comment 'Agg?'.
Experiment [8] shares this target. The experiment is described as follows: SPR, 1:1 binding fit, canine NGF.
Experiment [9] has the same target. The experiment is described as follows: SPR, Biacore T100, dog NGF; run 11/22.

Where a chain is given by its changes, count along the chain named. Numbers in names are those of the source.

B1: murine anti-NGF monoclonal antibody RN911 (antibody, V domains shown)
VH: QVQLKESGPGLVAPSQSLSITCTVSGFSLIGYDINWVRQPPGKGLEWLGMIWGDGTTDYNSALKSRLSISKDNSKSQVFLKMNSLRTDDTATYSCARGGYYYGTSYYFDYWGQGTTLTVSS
VL: DIQMTQTTSSLSASLGDRVTISCRASQDISNHLNWYQQKPDGTVKLLIYYISRFHSGVPSRFSGSGSGTDYSLTISNLEQEDIATYFCQQSKTLPYTFGGGTKLEIKR
notes: Mouse mAb; also called MU-RN911
In general, Kd refers to the free concentration of one partner at which half of the binding sites on the other are occupied at equilibrium, for simple one-to-one binding. Broadly, the Ki is a dissociation constant, usually derived from enzyme kinetics or from competition with a known ligand. As for B1, in [1], the “EC50, pERK inhibition, PC-12 (Rat Neuronal), pre-incubation 1 hour, 2/23/11 (RN911)” value was determined as 0.67 nM; the “EC50, pERK inhibition, PC-12 (Rat Neuronal), pre-incubation 1 hour, 3/26/11 (RN911)” value came out at 0.46 nM; the “EC50, pERK inhibition, huTrkA (CHO), pre-incubation 1 hour, 3/26/11 (RN911)” value is 0.47 nM; the “EC50, pERK inhibition, huTrkA (CHO), pre-incubation 1 hour, 3/31/11 (RN911)” value is 0.62 nM. Also, in experiment [1], the “EC50, pERK inhibition, huTrkA (CHO), pre-incubation 6 hour, 3/31/11 (RN911)” value amounted to 0.57 nM. For the same molecule, the equilibrium dissociation constant (Kd) in experiment [2] was found to be 0.755 nM. Further, the Ki in [3] was found to be 4.2 nM.

B2: LTM construct 45 (HC Y100W, LC H32N) (antibody, V domains shown)
VH: EVQLVESGGDLARPGGSLKLSCVVSGFSLIGYDINWVRQAPGKGLQWVTMIWGDGTTDYNSALKSRFTVSRDNAMNTVYLQMNSLRVEDTAVYYCARGGWYYGTSYYFDYWGQGTLVTVSS
VL: DIVMTQTPLSLSVSPGETASISCRASQDISNNLNWFRQKPGQSPQRLIYYISRFHSGVPDRFSGSGSGTDFTLRISRVEADDTGVYYCQQSKTLPYTFGAGTKLEIK
notes: Point mutant of canE3M65 as full IgG; Constant regions are not restated
Turning to B2, the Kd in experiment [4] worked out at 4.35 nM; in experiment [5], 2.1 nM.

B3: LTM109 (HC Y101W, G103A; LC D28S, H32N, K92H) (antibody, V domains shown)
VH: B2 VH with W100Y, Y101W, G103A
VL: B2 VL with D28S, K92H
notes: Full IgG; constant regions are not restated; also called CAN-LTM109-VH / CAN-LTM109-VL
As for B3, the Kd came out at 0.748 nM in experiment [4] and 0.515 nM in experiment [5].

B4: LTM construct 112 (HC Y101W, G103A; LC D28S, NH31HN, K92D) (antibody, V domains shown)
VH: B2 VH with W100Y, Y101W, G103A
VL: B2 VL with D28S, N31H, K92D
notes: Point mutant of canE3M65 as full IgG
In the case of B4, the Kd was found to be 0.00165 nM in experiment [6] and 0.0152 nM in [7].

B5: LTM135 (HC G103A, LC H32N) (antibody, V domains shown)
VH: B2 VH with W100Y, G103A
VL: B2 VL
notes: as for B4
By koff is commonly meant a measure of how fast the partners let go of each other. In general, kon refers to the rate constant with which the complex forms. In the case of B5, the Kd in [6] is 0.138 nM; in [7], 0.0061 nM; in [8] it was 1.69 nM. For the same molecule, the dissociation rate constant (koff) in experiment [8] stood at 4.23e-05 s⁻¹. In addition, in [8], the on-rate (kon) came out at 25100 M⁻¹ s⁻¹.

B6: LTM construct 43 (HC Y100W, LC K92H) (antibody, V domains shown)
VH: B2 VH
VL: B2 VL with N32H, K92H
notes: as for B2
For the molecule B6, the Kd in experiment [5] was found to be 5.67 nM.

B7: LTM construct 35 (HC Y100W, LC D28S, H32N, K92H) (antibody, V domains shown)
VH: B2 VH
VL: B2 VL with D28S, K92H
notes: as for B2
With B7, the figures for the equilibrium dissociation constant (Kd) in experiment [4] and in [9] were 0.81 nM and 0.237 nM, respectively.

B8: SSM58 (CAN-SSM58-VH, CAN-SSME3M-VL) (antibody, V domains shown)
VH: B2 VH with G31E, W100Y, Y101W, G103A
VL: B2 VL with D28S, R53S, K92H
Regarding B8, in [1], the “EC50, pERK inhibition, PC-12 (Rat Neuronal), pre-incubation 1 hour, 2/23/11 (SSM58)” value is 1.05 nM; the “EC50, pERK inhibition, PC-12 (Rat Neuronal), pre-incubation 1 hour, 3/26/11 (SSM58)” value is 0.65 nM; the “EC50, pERK inhibition, huTrkA (CHO), pre-incubation 1 hour, 3/26/11 (SSM58)” value is 0.79 nM; the “EC50, pERK inhibition, huTrkA (CHO), pre-incubation 1 hour, 3/31/11 (SSM58)” value was 0.86 nM. In [1], the “EC50, pERK inhibition, huTrkA (CHO), pre-incubation 6 hour, 3/31/11 (SSM58)” value was 0.72 nM; the “Fold Potency Difference versus RN911, pERK inhibition, PC-12 (Rat Neuronal), pre-incubation 1 hour, 2/23/11 (SSM58)” value turned out to be 1.6 fold; the “Fold Potency Difference versus RN911, pERK inhibition, PC-12 (Rat Neuronal), pre-incubation 1 hour, 3/26/11 (SSM58)” value is 1.4 fold; the “Fold Potency Difference versus RN911, pERK inhibition, huTrkA (CHO), pre-incubation 1 hour, 3/26/11 (SSM58)” value amounted to 1.7 fold. In addition, in experiment [1], the “Fold Potency Difference versus RN911, pERK inhibition, huTrkA (CHO), pre-incubation 1 hour, 3/31/11 (SSM58)” value was 1.4 fold and the “Fold Potency Difference versus RN911, pERK inhibition, huTrkA (CHO), pre-incubation 6 hour, 3/31/11 (SSM58)” value stood at 1.3 fold. For the same molecule, the inhibitory constant (Ki) in experiment [3] came out at 4.2 nM.

B9: SSM57 (CAN-SSM57-VH, CAN-SSME3M-VL) (antibody, V domains shown)
VH: B2 VH with G31Q, W100Y, Y101W, G103A
VL: B2 VL with D28S, R53S, K92H
notes: also called PF 06442590; PF-06442591
With B9, in [1], the “EC50, pERK inhibition, PC-12 (Rat Neuronal), pre-incubation 1 hour, 2/23/11 (SSM57)” value stood at 1.08 nM; the “EC50, pERK inhibition, PC-12 (Rat Neuronal), pre-incubation 1 hour, 3/26/11 (SSM57)” value was 0.65 nM; the “EC50, pERK inhibition, huTrkA (CHO), pre-incubation 1 hour, 3/26/11 (SSM57)” value was 0.85 nM; the “EC50, pERK inhibition, huTrkA (CHO), pre-incubation 1 hour, 3/31/11 (SSM57)” value amounted to 0.86 nM. Moreover, in [1], the “EC50, pERK inhibition, huTrkA (CHO), pre-incubation 6 hour, 3/31/11 (SSM57)” value was determined as 0.73 nM; the “Fold Potency Difference versus RN911, pERK inhibition, PC-12 (Rat Neuronal), pre-incubation 1 hour, 2/23/11 (SSM57)” value was determined as 1.6 fold; the “Fold Potency Difference versus RN911, pERK inhibition, PC-12 (Rat Neuronal), pre-incubation 1 hour, 3/26/11 (SSM57)” value worked out at 1.4 fold; the “Fold Potency Difference versus RN911, pERK inhibition, huTrkA (CHO), pre-incubation 1 hour, 3/26/11 (SSM57)” value is 1.8 fold. Also, in experiment [1], the “Fold Potency Difference versus RN911, pERK inhibition, huTrkA (CHO), pre-incubation 1 hour, 3/31/11 (SSM57)” value came to 1.4 fold and the “Fold Potency Difference versus RN911, pERK inhibition, huTrkA (CHO), pre-incubation 6 hour, 3/31/11 (SSM57)” value came to 1.3 fold. In addition, the Ki in experiment [3] turned out to be 4.2 nM.

B10: LTM construct 133 (HC G103A, LC K92H) (antibody, V domains shown)
VH: B2 VH with W100Y, G103A
VL: B2 VL with N32H, K92H
notes: as for B4
As for B10, the Kd was 0.00133 nM in experiment [6] and 0.011 nM in experiment [7].

B11: LTM construct 44 (HC Y100W, LC S91E) (antibody, V domains shown)
VH: B2 VH
VL: B2 VL with N32H, S91E
notes: as for B2
Regarding B11, the binding result in experiment [5] is on record as “no binding”.

B12: LTM construct 34 (HC Y100W, LC D28S, H32N) (antibody, V domains shown)
VH: B2 VH
VL: B2 VL with D28S
notes: as for B2
Turning to B12, the Kd in experiment [4] amounted to 0.885 nM; in experiment [9] it was 0.639 nM.

B13: SSM66 (CAN-SSM66-VH, CAN-SSME3M-VL) (antibody, V domains shown)
VH: B2 VH with G31E, D54T, W100Y, Y101W, G103A
VL: B2 VL with D28S, R53S, K92H
Turning to B13, in experiment [1], the “EC50, pERK inhibition, PC-12 (Rat Neuronal), pre-incubation 1 hour, 2/23/11 (SSM66)” value was found to be 1.45 nM; the “EC50, pERK inhibition, PC-12 (Rat Neuronal), pre-incubation 1 hour, 3/26/11 (SSM66)” value was determined as 0.71 nM; the “EC50, pERK inhibition, huTrkA (CHO), pre-incubation 1 hour, 3/26/11 (SSM66)” value is 0.76 nM; the “EC50, pERK inhibition, huTrkA (CHO), pre-incubation 1 hour, 3/31/11 (SSM66)” value stood at 0.94 nM. For the same molecule, in [1], the “EC50, pERK inhibition, huTrkA (CHO), pre-incubation 6 hour, 3/31/11 (SSM66)” value stood at 0.69 nM; the “Fold Potency Difference versus RN911, pERK inhibition, PC-12 (Rat Neuronal), pre-incubation 1 hour, 2/23/11 (SSM66)” value came to 2.2 fold; the “Fold Potency Difference versus RN911, pERK inhibition, PC-12 (Rat Neuronal), pre-incubation 1 hour, 3/26/11 (SSM66)” value was 1.5 fold; the “Fold Potency Difference versus RN911, pERK inhibition, huTrkA (CHO), pre-incubation 1 hour, 3/26/11 (SSM66)” value came to 1.6 fold. Besides, in [1], the “Fold Potency Difference versus RN911, pERK inhibition, huTrkA (CHO), pre-incubation 1 hour, 3/31/11 (SSM66)” value is 1.5 fold and the “Fold Potency Difference versus RN911, pERK inhibition, huTrkA (CHO), pre-incubation 6 hour, 3/31/11 (SSM66)” value was 1.2 fold. The Ki in [3] was 4.5 nM.
